Experiments:
[1] = molecular target: human chymotrypsin C (CTRC) mutant N52S, active enzyme (human) (UniProt Q99895); experiment: equilibrium inhibitor binding assay
[2] = molecular target: human chymotrypsin C (CTRC), wild type, active enzyme (human) (UniProt Q99895); experiment: equilibrium inhibitor binding assay
[3] = steady-state kinetics, purified CTRC; conditions: glycan lost; control: wild type (HEK 293T)
[4] = casein digestion time course, SDS-PAGE; conditions: glycan lost; control: wild type (HEK 293T)
[5] = trypsin-induced mobility shift on reducing SDS-PAGE; conditions: glycan lost; control: wild type
[6] = Leu81-Glu82 cleavage time course, SDS-PAGE; conditions: glycan lost; control: wild type (HEK 293T)
[7] = active site titration of media with SGPI-2; conditions: glycan lost; control: wild type
[8] = CTRC activity of HEK 293T conditioned media; conditions: glycan gained; control: wild type

**Q.** For “Schistocerca gregaria proteinase inhibitor-2 (SGPI-2) (natural protein)”, which Kd [1] is on record?
**A.** 2.7 nM

**Q.** And the Kd [2]?
**A.** 3.9 nM

B1: human chymotrypsin C (CTRC): N52S (protein)
parent chain: MLGITVLAALLACASSCGVPSFPPNLSARVVGGEDARPHSWPWQISLQYLKNDTWRHTCGGTLIASNFVLTAAHCISNTRTYRVAVGKNNLEVEDEEGSLFVGVDTIHVHKRWNALLLRNDIALIKLAEHVELSDTIQVACLPEKDSLLPKDYPCYVTGWGRLWTNGPIADKLQQGLQPVVDHATCSRIDWWGFRVKKTMVCAGGDGVISACNGDSGGPLNCQLENGSWEVFGIVSFGSRRGCNTRKKPVVYTRVSAYIDWINEKMQL
**Q.** Which “enzymatic_activity, kcat_Km” value [3] does the source give for B1 here?
**A.** no change, 1.2 × 106 vs 1.2 × 106

**Q.** What about the enzymatic_activity [4] of the same molecule?
**A.** no change

**Q.** What about the “other: proteolytic processing” value [5] of the same molecule?
**A.** no change

**Q.** What about the enzymatic_activity [6] of the same molecule?
**A.** no change

B2: rat CTRC: N90S (protein)
parent chain: MLGITVLAAILACASCCGNPAFPPNLSTRVVGGEDAVPNSWPWQVSLQYLKDDTWRHTCGGSLITTSHVLTAAHCINKDFTYRVGLGKYNLTVEDEEGSVYAEVDTIYVHEKWNRLFLWNDIAIIKLAEPVELSNTIQVACIPEEGSLLPQDYPCYVTGWGRLWTNGPIAEVLQQGLQPIVSHATCSRLDWWFIKVRKTMVCAGGDGVISACNGDSGGPLNCQAEDGSWQVHGIVSFGSSSGCNVHKKPVVFTRVSAYNDWINEKIQL
**Q.** Which “expression_or_secretion, other: concentration in medium” value [7] does the source give for B2 here?
**A.** decreases, 62.4 vs 175

B3: bovine CTRC: E92T (protein)
parent chain: MLGITVFTTFLAYASSCGAPIFQPNLSARVVGGEDAIPHSWPWQISLQYLRDNTWRHTCGGTLITPNHVLTAAHCISNTLTYRVALGKNNLEVEDEAGSLYVGVDTIFVHEKWNSFLVRNDIALIKLAETVELSDTIQVACLPEEGSLLPQDYPCFVTGWGRLYTNGPIAAELQQGLQPVVDYATCSQRDWWGTTVKETMVCAGGDGVISACNGDSGGPLNCQAENGNWDVRGIVSFGSGLSCNTFKKPTVFTRVSAYIDWINQKLQL
**Q.** For B3, which “expression_or_secretion, fold_change” value [8] is on record?
**A.** no change

Reference: publication PMC3209518
